Assay results taken from the supplement of paper PMC7877785.
± gives the uncertainty stated by the source.

Experiment: self-splicing fitness, log relative to wild type (ln ratio); higher = more splicing; Tetrahymena group I intron in knt gene, E. coli kanamycin selection, DiMSum; sequences stand for … in CUCUCU…GGAGGGAAAAGUUAUCAGGCAUGCACCUGGUAGCUAGUCUUUAAACCAAUAGAUUGCAUCGGUUUAAAAGGCAAGACCGUCAAAUUGCGGGAAAGGGGUCAACAGCCGUUCAGUACCAAGUCUCAGGGGAAACUUUGAGAUGGCCUUGCAAAGGGUAUGGUAAUAAGCUGACGGACAUGGUCCUAACCACGCAGCCAAGUCCUAAGUCAACAGAUCUUCUGUUGAUAUGGAUGCAGUUCACAGACUAAAUGUCGGUCGGGGAAGAUGUAUUCUUCUCAUAAGAUAUAGUCGGACCUCUCCUUAAUGGGAGCUAGCGGAUGAAGUGAUGCAACACUGGAGCCGCUGGGAACUAAUUUGUAUGCGAAAGUAUAUUGAUUAGUUUUGGAGUACUCGUGGUCG
Procedure, shortened: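 Library with all eight P1ex-region intron nucleotides randomised, intron inside the knt kanamycin-resistance gene on pET-22b(+), in E. coli BL21(DE3). Cells grew overnight at 37°C or 30°C on LB agar with or without 25 μg/mL kanamycin (plus 100 μg/mL carbenicillin, 50 μM IPTG, 0.2% rhamnose), in six replicate transformations. Pooled colonies were amplicon-sequenced on Illumina HiSeq 2500. DiMSum fitness is the error-weighted combination of wild-type-normalised replicate fold changes, kanamycin versus none.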

Row | Sequence | self-splicing fitness (ln) (30 °C) | self-splicing fitness (ln) (37 °C)
1 | GGCGAGCAAUAUUACGUCCG | -3.67 ± 0.35 | -2.39 ± 0.32
2 | GGCGAGCAAUAUUACGUUGA | -1.56 ± 0.13 | -2.18 ± 0.15
3 | GGCGAGCAAUAUUACGUUUU | -1.35 ± 0.094 | -1.35 ± 0.14
4 | GGCUAGCAAUAUUACGAACA | -1.01 ± 0.15 | -0.682 ± 0.15
5 | GGCUAGCAAUAUUACGAGAU | -3.58 ± 0.21 | -1.34 ± 0.14
6 | GGCUAGCAAUAUUACGAGGU | -3.02 ± 0.42 | -1.07 ± 0.18
7 | GGCUAGCAAUAUUACGAUAA | -1.28 ± 0.17 | -1.75 ± 0.16
8 | GGCUAGCAAUAUUACGAUGC | -1.03 ± 0.15 | -0.519 ± 0.28
9 | GGCUAGCAAUAUUACGCCAA | -2 ± 0.11 | -0.903 ± 0.16
10 | GGCUAGCAAUAUUACGCGCA | 0.157 ± 0.096 | -0.145 ± 0.13
11 | GGCUAGCAAUAUUACGCGCC | -3.69 ± 0.34 | -2.17 ± 0.38
12 | GGCUAGCAAUAUUACGCGUU | -0.656 ± 0.066 | -0.29 ± 0.08
13 | GGCUAGCAAUAUUACGCUCU | -2.35 ± 0.31 | -0.975 ± 0.19
14 | GGCUAGCAAUAUUACGGAAU | -0.705 ± 0.072 | -0.0885 ± 0.1
15 | GGCUAGCAAUAUUACGGAGA | -3.65 ± 0.37 | 
16 | GGCUAGCAAUAUUACGGAUA | -0.897 ± 0.13 | -0.492 ± 0.15
17 | GGCUAGCAAUAUUACGGCCA | -1.53 ± 0.21 | -0.776 ± 0.26
18 | GGCUAGCAAUAUUACGGCUU | -1.31 ± 0.17 | 0.197 ± 0.21
19 | GGCUAGCAAUAUUACGGGAC | -3.59 ± 0.3 | -0.762 ± 0.21

Row | Sequence | self-splicing fitness (ln) (30 °C) | self-splicing fitness (ln) (37 °C)
20 | GGCUAGCAAUAUUACGGGCG | -1.34 ± 0.095 | -0.19 ± 0.12
21 | GGCUAGCAAUAUUACGGUUA | 0.156 ± 0.084 | 0.606 ± 0.089
22 | GGCUAGCAAUAUUACGGUUC | -1.31 ± 0.056 | -0.331 ± 0.072
23 | GGCUAGCAAUAUUACGUAAC | -0.594 ± 0.083 | -0.442 ± 0.11
24 | GGCUAGCAAUAUUACGUAAG | -1.64 ± 0.068 | -0.594 ± 0.094
25 | GGCUAGCAAUAUUACGUAGC | -4.64 ± 0.42 | -2.16 ± 0.43
26 | GGCUAGCAAUAUUACGUCUG | -4.06 ± 0.31 | -2.13 ± 0.17
27 | GGCUAGCAAUAUUACGUGGC | -2.66 ± 0.28 | -1.23 ± 0.28
28 | GGCUAGCAAUAUUACGUUAA | -1.24 ± 0.091 | -0.642 ± 0.12
29 | GGGAAGCAAUAUUACGACGU | -0.169 ± 0.15 | 0.767 ± 0.17
30 | GGGAAGCAAUAUUACGAUUG | -3.59 ± 0.21 | -3.25 ± 0.3
31 | GGGAAGCAAUAUUACGCUAU | -2.75 ± 0.19 | -0.951 ± 0.14
32 | GGGAAGCAAUAUUACGGACC | -3.81 ± 0.4 | -2.35 ± 0.46
33 | GGGAAGCAAUAUUACGGACU | -1.99 ± 0.17 | -0.24 ± 0.19
34 | GGGAAGCAAUAUUACGGAUC | -0.0316 ± 0.077 | -0.684 ± 0.088
35 | GGGAAGCAAUAUUACGGCUA | -0.707 ± 0.089 | 0.0151 ± 0.12
36 | GGGAAGCAAUAUUACGGGAG | -3.28 ± 0.32 | -2.09 ± 0.27
37 | GGGAAGCAAUAUUACGGGGG | -4.18 ± 0.35 | -3.18 ± 0.32
